Results on six molecules are retold here after patent publication US20200399369A1 (Sanofi, published 2020).

The target in one experiment is T1, Human CD3 (human).
T1 chain: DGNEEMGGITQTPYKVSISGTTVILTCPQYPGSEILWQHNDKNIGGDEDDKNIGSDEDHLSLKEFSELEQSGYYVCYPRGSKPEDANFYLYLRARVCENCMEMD
Nature of the experiment: ELISA, antigen-coated plate.

Experiment [1] has as its target T2, cynomolgus monkey CD38 (cynomolgus monkey, UniProt Q5VAN0 44-301, limits assumed).
T2 construct: also called Cyno CD38; cynoCD38
Description: ELISA, antigen-coated plate. (In general: In an ELISA, binding on a coated surface is turned into a signal by an enzyme label.)
Description: (§1) Binding affinities to each target antigen by the CD38/CD28×CD3 T cell engagers were measured by ELISA. Briefly, each antigen was used to coat the 96-well Immuno Plate (Thermo Fisher Scientific) overnight at 4° C. using 200 ng/well in PBS (pH7.4) of each antigen. The coated plate was blocked using 5% skim milk+2% BSA in PBS for one hour at RT, followed by washing with PBS+0.25% Tween 20 three times (Aqua Max 400, Molecular Devices). Serial dilution of antibodies (trispecific and control Abs) were prepared and added onto the ELISA plates (100 μl/well in duplicate), incubated at room temperature (RT) for one hour, followed by washing 5 times with PBS+0.25% Tween 20. […] The reaction was terminated by adding 50 μl 1M H₂SO₄, and OD450 was measured using SpectraMax M5 (Molecular Devices) and analyzed using SoftMax Pro6.3 software (Molecular Devices). The final data was transferred to GraphPad Prism software (GraphPad Software, CA, USA), and plotted. EC50 was calculated using the same software.
(§2) The binding affinities of selected CD38/CD28sup×CD3mid_ENLQ DKTHT IgG4 FALA trispecific antibodies with alternative anti-CD38 binding domains for human CD3, human CD28, human CD38 and cynomolgus monkey CD38 were then determined by ELISA as described above.

In experiment [2] the target is T3, human CD38 (human, UniProt P28907 43-300, limits assumed).
T3 construct: also called hCD38; huCD38
Description: ELISA, antigen-coated plate.
Description: as §1, §2

The target in another experiment is T4, Human CD28 (human, UniProt P10747 19-152, limits assumed).
T4 construct: also called hCD28
Description: ELISA, antigen-coated plate.

In experiment [3] the target is T5, human CD38 on tumor cell lines NCI-H929 (CD38+/CD28+) and OCI-LY19 (CD38+/CD28-) (human, UniProt P28907 1-300). Description: cell-based or functional assay.
In experiment [4] the target is T5, human CD38 on tumor cell lines NCI-H929 …. Nature of the experiment: cell-based or functional assay. This is another data set of the same source.
The next experiment deals with T6, Human CD38-His (human, UniProt P28907 43-300, limits assumed).
T6 construct: Bought antigen; also called human CD38 (SPR antigen); not shown: His tag
Description: SPR (BIACORE 3000), capture format, 1:1 Langmuir model. On the technique in general: Surface plasmon resonance follows binding to a sensor surface in real time, without labels.

The target of experiment [5] is T2, cynomolgus monkey CD38. Description: FACS. For orientation: In flow cytometry, cells or beads pass a laser one at a time.
The target in experiment [6] is T3, human CD38. Description: FACS.
The target of experiment [7] is T2, cynomolgus monkey CD38. Nature of the experiment: SPR.
In experiment [8] the target is T3, human CD38. Description: SPR.
Experiment [9] concerns the target T2, cynomolgus monkey CD38. Nature of the experiment: ELISA.
Experiment [10] deals with T3, human CD38. Description: ELISA.

Description for Human CD28: as §1, §2
Description for Human CD38-His: Human CD38-His antigens were used (Cambridge Biologics, Cambridge, Mass.) for full kinetic analysis. Kinetic characterization of purified antibodies was performed using SPR technology on a BIACORE 3000 (GE Healthcare). A capture assay using human IgG1 specific antibody capture and orientation of the investigated antibodies was used. For capture of Fc containing protein constructs the human antibody capture kit (GE Healthcare) was used. For capture of His tagged antigen, anti-His antibody capture kit (GE Healthcare) was used. The capture antibody was immobilized via primary amine groups (11000 RU) on a research grade CM5 chip (GE Life Sciences) using standard procedures. […] Binding kinetics were measured against the trispecific antibodies. Assay buffer HBS EP (10 mM HEPES, pH 7.4, 150 mM NaCl, 3 mM EDTA, and 0.005% Surfactant P20) was used at a flow rate of 30 μl/min. Chip surfaces were regenerated with the regeneration solution of the respective capture kit. Kinetic parameters were analyzed and calculated in the BIA evaluation program package v4.1 using a flow cell without captured antibody as reference and the 1:1 Langmuir binding model with mass transfer.

B1: CD38hhy992/CD28sup x CD3mid_ENLQ DKTHT IgG4 FALA (other)
light 1: DIVMTQTPLSLSVTPGQPASISCKSSQSLVHENLQTYLSWYLQKPGQSPQSLIYKVSNRFSGVPDRFSGSGSGTDFTLKISRVEAEDVGVYYCGQGTQYPFTFGSGTKVEIKDKTHTDIQMTQSPSSLSASVGDRVTITCQASQNIYVWLNWYQQKPGKAPKLLIYKASNLHTGVPSRFSGSGSGTDFTLTISSLQPEDIATYYCQQGQTYPYTFGQGTKLEIKDKTHTRTVAAPSVFIFPPSDEQLKSGTASVVCLLNNFYPREAKVQWKVDNALQSGNSQESVTEQDSKDSTYSLSSTLTLSKADYEKHKVYACEVTHQGLSSPVTKSFNRGEC
heavy 1: QVQLVQSGAEVVKPGASVKVSCKASGYTFTSYYIHWVRQAPGQGLEWIGSIYPGNVNTNYAQKFQGRATLTVDTSISTAYMELSRLRSDDTAVYYCTRSHYGLDWNFDVWGKGTTVTVSSDKTHTQVQLVESGGGVVQPGRSLRLSCAASGFTFTKAWMHWVRQAPGKQLEWVAQIKDKSNSYATYYADSVKGRFTISRDDSKNTLYLQMNSLRAEDTAVYYCRGVYYALSPFDYWGQGTLVTVSSDKTHTASTKGPSVFPLAPCSRSTSESTAALGCLVKDYFPEPVTVSWNSGALTSGVHTFPAVLQSSGLYSLSSVVTVPSSSLGTKTYTCNVDHKPSNTKVDKRVESKYGPPCPPCPAPEAAGGPSVFLFPPKPKDTLMISRTPEVTCVVVDVSQEDPEVQFNWYVDGVEVHNAKTKPREEQFNSTYRVVSVLTVLHQDWLNGKEYKCKVSNKGLPSSIEKTISKAKGQPREPQVCTLPPSQEEMTKNQVSLSCAVKGFYPSDIAVEWESNGQPENNYKTTPPVLDSDGSFFLVSKLTVDKSRWQEGNVFSCSVMHEALHNHYTQKSLSLSLG
heavy 2: QVQLVQSGAEVKKPGASVKVSCKVSGYTLTEFSIHWVRQAPGQGLEWMGGFDPEDGETIYAQKFQGRVIMTEDTSTDTAYMEMNSLRSEDTAIYYCTTGRFFDWFWGQGTLVTVSSASTKGPSVFPLAPCSRSTSESTAALGCLVKDYFPEPVTVSWNSGALTSGVHTFPAVLQSSGLYSLSSVVTVPSSSLGTKTYTCNVDHKPSNTKVDKRVESKYGPPCPPCPAPEAAGGPSVFLFPPKPKDTLMISRTPEVTCVVVDVSQEDPEVQFNWYVDGVEVHNAKTKPREEQFNSTYRVVSVLTVLHQDWLNGKEYKCKVSNKGLPSSIEKTISKAKGQPREPQVYTLPPCQEEMTKNQVSLWCLVKGFYPSDIAVEWESNGQPENNYKTTPPVLDSDGSFFLYSKLTVDKSRWQEGNVFSCSVMHEALHNHYTQKSLSLSLG
light 2: EIILTQSPAILSLSPGERATLSCRASQSVISRFLSWYQVKPGLAPRLLIYGASTRATGIPVRFSGSGSGTDFSLTISSLQPEDCAVYYCQQDSNLPITFGQGTRLEIKRTVAAPSVFIFPPSDEQLKSGTASVVCLLNNFYPREAKVQWKVDNALQSGNSQESVTEQDSKDSTYSLSSTLTLSKADYEKHKVYACEVTHQGLSSPVTKSFNRGEC
notes: Trispecific antibody; also called BP # 5′
The molecule B1 displayed an EC50 with Human CD3 of 33600 pM. The molecule also gave an EC50 with cynomolgus monkey CD38 [1] of 912 pM. In addition, in the experiment with human CD38 [2], a half-maximal effect (EC50) was put at 229 pM. In the experiment with Human CD28, this molecule gave an EC50 of 809 pM. Further, in [3], the “EC50 of in vitro killing of OCI-LY19 (CD38+/CD28-) cells, With Dara” value stood at 133 pM and the “EC50 of in vitro killing of OCI-LY19 (CD38+/CD28-) cells, With human IgG1” value was 57.3 pM. Besides, in experiment [4], the “EC50 of in vitro killing of NCI-H929 (CD38+/CD28+) cells, With Dara” value came out at 126 pM and the “EC50 of in vitro killing of NCI-H929 (CD38+/CD28+) cells, With human IgG1” value was determined as 13.4 pM. Moreover, in the experiment with Human CD38-His, the Kd was 129 pM, the koff was 0.000175 s⁻¹ and the kon was 1.35e+06 M⁻¹ s⁻¹.

B2: CD38hyb5739/CD28sup x CD3mid_ENLQ DKTHT IgG4 FALA (other)
light 1: DIVMTQTPLSLSVTPGQPASISCKSSQSLVHENLQTYLSWYLQKPGQSPQSLIYKVSNRFSGVPDRFSGSGSGTDFTLKISRVEAEDVGVYYCGQGTQYPFTFGSGTKVEIKDKTHTDIQMTQSPSSLSASVGDRVTITCQASQNIYVWLNWYQQKPGKAPKLLIYKASNLHTGVPSRFSGSGSGTDFTLTISSLQPEDIATYYCQQGQTYPYTFGQGTKLEIKDKTHTRTVAAPSVFIFPPSDEQLKSGTASVVCLLNNFYPREAKVQWKVDNALQSGNSQESVTEQDSKDSTYSLSSTLTLSKADYEKHKVYACEVTHQGLSSPVTKSFNRGEC
heavy 1: QVQLVQSGAEVVKPGASVKVSCKASGYTFTSYYIHWVRQAPGQGLEWIGSIYPGNVNTNYAQKFQGRATLTVDTSISTAYMELSRLRSDDTAVYYCTRSHYGLDWNFDVWGKGTTVTVSSDKTHTQVQLVESGGGVVQPGRSLRLSCAASGFTFTKAWMHWVRQAPGKQLEWVAQIKDKSNSYATYYADSVKGRFTISRDDSKNTLYLQMNSLRAEDTAVYYCRGVYYALSPFDYWGQGTLVTVSSDKTHTASTKGPSVFPLAPCSRSTSESTAALGCLVKDYFPEPVTVSWNSGALTSGVHTFPAVLQSSGLYSLSSVVTVPSSSLGTKTYTCNVDHKPSNTKVDKRVESKYGPPCPPCPAPEAAGGPSVFLFPPKPKDTLMISRTPEVTCVVVDVSQEDPEVQFNWYVDGVEVHNAKTKPREEQFNSTYRVVSVLTVLHQDWLNGKEYKCKVSNKGLPSSIEKTISKAKGQPREPQVCTLPPSQEEMTKNQVSLSCAVKGFYPSDIAVEWESNGQPENNYKTTPPVLDSDGSFFLVSKLTVDKSRWQEGNVFSCSVMHEALHNHYTQKSLSLSLG
heavy 2: QVQLQQSGPELVRPGTSVKVSCKASGYAFTTYLVEWIKQRPGQGLEWIGVINPGSGSTNYNEKFKGKATLTVDRSSTTAYMHLSGLTSDDSAVYFCARYAYGYWGQGTTLTVSSASTKGPSVFPLAPCSRSTSESTAALGCLVKDYFPEPVTVSWNSGALTSGVHTFPAVLQSSGLYSLSSVVTVPSSSLGTKTYTCNVDHKPSNTKVDKRVESKYGPPCPPCPAPEAAGGPSVFLFPPKPKDTLMISRTPEVTCVVVDVSQEDPEVQFNWYVDGVEVHNAKTKPREEQFNSTYRVVSVLTVLHQDWLNGKEYKCKVSNKGLPSSIEKTISKAKGQPREPQVYTLPPCQEEMTKNQVSLWCLVKGFYPSDIAVEWESNGQPENNYKTTPPVLDSDGSFFLYSKLTVDKSRWQEGNVFSCSVMHEALHNHYTQKSLSLSLG
light 2: DIVMTQSQKFMSASVGDRVSITCKASQNVGTAVAWYQQQPGHSPKQLIYSASNRYTGVPDRFTGSGAGTDFTLTISNIQSEDLADYFCQQYSTYPFTFGSGTKLEIKRTVAAPSVFIFPPSDEQLKSGTASVVCLLNNFYPREAKVQWKVDNALQSGNSQESVTEQDSKDSTYSLSSTLTLSKADYEKHKVYACEVTHQGLSSPVTKSFNRGEC
notes: Trispecific antibody; also called BP # 6′
B2 registered an EC50 with Human CD3 of 10800 pM. This molecule also gave an EC50 in the experiment with cynomolgus monkey CD38 [1] of 1630 pM. Besides, the EC50 with human CD38 [2] amounted to 984 pM. In the experiment with Human CD28, this molecule came in with an EC50 of 825 pM. Besides, in [3], the “EC50 of in vitro killing of OCI-LY19 (CD38+/CD28-) cells, With Dara” value turned out to be 219 pM and the “EC50 of in vitro killing of OCI-LY19 (CD38+/CD28-) cells, With human IgG1” value amounted to 61 pM. In experiment [4], the “EC50 of in vitro killing of NCI-H929 (CD38+/CD28+) cells, With Dara” value is 9.12 pM and the “EC50 of in vitro killing of NCI-H929 (CD38+/CD28+) cells, With human IgG1” value amounted to 2.74 pM. Also, in the experiment with Human CD38-His, the Kd is 5570 pM, the koff amounted to 0.00546 s⁻¹ and the kon was determined as 980000 M⁻¹ s⁻¹.

B3: AntiCD38_hhy_1195 (antibody, V domains shown)
VH: QVQLVESGGGVVQPGRSLRLSCAASGFTFSSYGMYWVRQAPGKGLEWVAVIWYDGSNKYYADSVKGRFTISRDNSKNTLYLQMNSLRAEDTAVYHCARDPGLRYFDGGMDVWGQGTTVTVSS
VL: DIQLTQSPSFLSASVGDRVTITCRASQGISSYLAWYQQKPGKAPKLLIFAASTLHSGVPSRFSGSGSGTEFTLTISSLQPEDFATYYCQQLNSFPYTFGQGTKLEIK
On to B3, for which the EC50 in the experiment with cynomolgus monkey CD38 [5] was 15000 pM; with human CD38 [6] it was 38000 pM; in the experiment with cynomolgus monkey CD38 [9], 860 pM; with human CD38 [10], 1400 pM. Also, the Kd with cynomolgus monkey CD38 [7] came to 26000 pM; in the experiment with human CD38 [8], 40000 pM.

B4: AntiCD38_hyb_5739 (antibody, V domains shown)
VH: QVQLQQSGPELVRPGTSVKVSCKASGYAFTTYLVEWIKQRPGQGLEWIGVINPGSGSTNYNEKFKGKATLTVDRSSTTAYMHLSGLTSDDSAVYFCARYAYGYWGQGTTLTVSS
VL: DIVMTQSQKFMSASVGDRVSITCKASQNVGTAVAWYQQQPGHSPKQLIYSASNRYTGVPDRFTGSGAGTDFTLTISNIQSEDLADYFCQQYSTYPFTFGSGTKLEIK
Take B4: the EC50 came to 500 pM with cynomolgus monkey CD38 [5], 300 pM with human CD38 [6], 90 pM with cynomolgus monkey CD38 [9] and 120 pM with human CD38 [10].

B5: AntiCD38_hhy_992 (antibody, V domains shown)
VH: QVQLVQSGAEVKKPGASVKVSCKVSGYTLTEFSIHWVRQAPGQGLEWMGGFDPEDGETIYAQKFQGRVIMTEDTSTDTAYMEMNSLRSEDTAIYYCTTGRFFDWFWGQGTLVTVSS
VL: EIILTQSPAILSLSPGERATLSCRASQSVISRFLSWYQVKPGLAPRLLIYGASTRATGIPVRFSGSGSGTDFSLTISSLQPEDCAVYYCQQDSNLPITFGQGTRLEIK
Regarding B5, the EC50 came to 288000 pM with cynomolgus monkey CD38 [5], 100000 pM with human CD38 [6], 80 pM in the experiment with cynomolgus monkey CD38 [9] and 90 pM with human CD38 [10]. In addition, the Kd was 6120 pM with cynomolgus monkey CD38 [7] and 365 pM with human CD38 [8].

B6: AntiCD38_hyb_6284 (antibody, V domains shown)
VH: QVQLLQSGAELVRPGVSVKISCTGSGYSFTNYAVHWVKQSHVKSLEWIGVISPYYGDTTYNQKFTGKATMTVDKSSSTAYMELARLTSEDSAIYFCARRFEGFYYSMDYWGQGTSVTVSS
VL: DVVMIQTPLSLPVSLGDQASISCRPSQSLVHSNGNTYLNWYLQRPGQSPKLLIYKVSKRFSGVPDRFSGSGSGTDFTLKISRVEAEDLGVYLCSQSTHVPLTFGSGTQLEIK
For B6, the concentration giving a half-maximal response (EC50) in the experiment with cynomolgus monkey CD38 [5] is 700 pM; with human CD38 [6], 400 pM; in the experiment with cynomolgus monkey CD38 [9], 130 pM; in the experiment with human CD38 [10] it was 110 pM.

The term EC50 denotes the midpoint of the concentration-response curve. By Kd is commonly meant the concentration at which binding is half-saturated. A word on the koff: it is the first-order rate constant of dissociation. By kon is commonly meant a measure of how fast the partners come together.
